Measured values published in the nanobody polyreactivity screen of Harvey et al. (2022).

Test: yeast display, Sf9 membrane polyspecificity reagent, FACS + sequencing; frameworks hold sequencing errors
Summary of the method: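 A nanobody's polyreactivity label depends on the gate it was sorted from. Yeast display cells were stained with 10% biotinylated, detergent-solubilized Sf9 membrane reagent for 1 hour at 4 °C, enriched on streptavidin microbeads and sorted by FACS. The low and high (top ~1%) gates were set on anti-HA fluorescence for expression and streptavidin fluorescence for reagent binding.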

Sequence: QVQLVESGGGLVQAGGSLRLSCAASGSTFATNTLGWYRQAPGKERELVAAISRGTSTKYADSVKGRFTISRDNAKNTVYLQMTCLKPEDTAVSYCNAVSRDKSLYDYWGQGTQVTVSS
- polyreactivity (PSR sort gate): high polyreactivity

Sequence: QVQLVESGGGLVQAGGSLRLSCAASGSTFATYAMGWYRQAPGKERELVAAISKSGGSTYYADSVKGRFTISRDNAKNTVYLQMNSLKPEDTAVYYCAAVGPYRWYDYWGQGTQVTVSS
- polyreactivity (PSR sort gate): high polyreactivity

Sequence: QVQLVESGGGLVQAGGSLRLSCAASGSTFATYAMGWYRQAPGKERELVAAITLRGGRTYYADSVKGRFTISRDNAKNTVYLQMNSLKPEDTAVYYCAAEYYYLSFGLTWWRGFDYWGQGTQVTVSS
- polyreactivity (PSR sort gate): high polyreactivity

Sequence: QVQLVESGGGLVQAGGSLRLSCAASGSTFATYAMGWYRQAPGKERELVAVITRGGRTYYADSVKGRFTISRDNAKNTVYLQMNSLKPEDTAVYYCAAKAYTYYARIGFDYCGQGTQVTVSS
- polyreactivity (PSR sort gate): high polyreactivity

Sequence: QVQLVESGGGLVQAGGSLRLSCAASGSTFAVNAMGWYRQAPGKEREFVASIRGSGGRTSYADSVKGRFTISRDNAKNTVYLQMNCLKPEDTAVYYCAARYVGGTWRSGRYPRSDYWGQGTQVTVSS
- polyreactivity (PSR sort gate): high polyreactivity

Sequence: QVQLVESGGGLVQAGGSLRLSCAASGSTFAVYAMGWYRQAPGKERELVATITGSGGSTYYADSVKGRFTISRDNAKNTVYLEMNSLKPEDTAVYYCAAEVVAWSLYEDFKTYDYWGQGTQVTVSS
- polyreactivity (PSR sort gate): low polyreactivity

Sequence: QVQLVESGGGLVQAGGSLRLSCAASGSTFAVYAMGWYRQPPGKERELVAAITWSGGSTYYADSVKGRFTISRDNAKNTVYLQMNSLKPEDTAVYYCAAVVVRFIYVYFEFEWGQGTQVTVSS
- polyreactivity (PSR sort gate): low polyreactivity

Sequence: QVQLVESGGGLVQAGGSLRLSCAASGSTFAWNAMGWYIQAPGKERELVAAISYSGGTTYYADSVKGRFTISRDNAKNTVYLQMNSLKPEDTAVYYCAKWEGHGRNPWGAGTEGDYWGQGTQVTVSS
- polyreactivity (PSR sort gate): low polyreactivity

Sequence: QVQLVESGGGLVQAGGSLRLSCAASGSTFAWYAMGWYRQAPGKERELVAAISSTVGSTYYADSVKGRFTISRDNAKNTVYLQLKSLKPEDTAVYYCARYYYRYYIRQLALGASTYDYWGQGTQVTVSS
- polyreactivity (PSR sort gate): high polyreactivity

Sequence: QVQLVESGGGLVQAGGSLRLSCAASGSTFAYYAMGLYRQAPGKERELVASISWRGGSTYYADSVKGRFTISRDNAKNTVYLQMNSLKPEVTAVYYCAAGRFYKWSRSQEYDYWGQGTQVTVSS
- polyreactivity (PSR sort gate): low polyreactivity

Sequence: QVQLVESGGGLVQAGGSLRLSCAASGSTFAYYAMGWSRQAPGKERELVASISWRGGSTYYADSVKGRFTNSRDNAKNTVYLQMNSLKPEDTAVYYCAAGRFYIWSRSQEYDYWGQGTQVTVSS
- polyreactivity (PSR sort gate): low polyreactivity

Sequence: QVQLVESGGGLVQAGGSLRLSCAASGSTFAYYAMGWYRQAPGKERELVAAISVSGGRTYYADSVKGRFTISRDNAKNTVYLQMNSLKPEDTAVYYCAARLWRDYYWGQGTQVTVSS
- polyreactivity (PSR sort gate): high polyreactivity

Sequence: QVQLVESGGGLVQAGGSLRLSCAASGSTFAYYAMGWYRQAPGKERELVAAISWSGGSTYYADSVKGRFTISRDNAKNTVYLQLNSLKPEDTAVYYCAAGVPSTFQYSYWDYNYWGQGTQVTVSS
- polyreactivity (PSR sort gate): low polyreactivity

Sequence: QVQLVESGGGLVQAGGSLRLSCAASGSTFAYYAMGWYRQAPGKERELVAAITSSGGSTYYADSVKGRFTISRDNAKNTVYLQMNSLKPEDTAVYYCNARYRRKSWRPFDYWGQGTQVTVSS
- polyreactivity (PSR sort gate): high polyreactivity

Sequence: QVQLVESGGGLVQAGGSLRLSCAASGSTFAYYARGWYRQAPGKERELVASISWRGGSTYYADSVKGRFTISRDNAKNTVYLQMNSLKPEDTAFYYCAAGRFYKWSRSQEYDYWGQGTQVTVSS
- polyreactivity (PSR sort gate): low polyreactivity

Sequence: QVQLVESGGGLVQAGGSLRLSCAASGSTFCRNAMGWYRQAPGKEREFVAVISISSGTTYADSVKGRFTISRDNAKNTVYLQMNSVKPVDTAVYYCAAAIGVYYIDYRYLGTVEYWGQGTQVNVSS
- polyreactivity (PSR sort gate): low polyreactivity

Sequence: QVQLVESGGGLVQAGGSLRLSCAASGSTFDANAMGWYRQAPGKERELVAAITSNGGSTYYADSVKGRFTISRDNAKNTVYLQMNSLKPEDTAVYYCDTEQHTVQDYDYWGQGTQVTVSS
- polyreactivity (PSR sort gate): low polyreactivity

Sequence: QVQLVESGGGLVQAGGSLRLSCAASGSTFDANAMGWYRQAPGKERELVADITVRDGSTYYADSVKGRFTISRDNAKNTVYLQMNSLKPEDTAVYYCNAGRYTGGYSPGYGYWGLGTQVTVSS
- polyreactivity (PSR sort gate): low polyreactivity

Sequence: QVQLVESGGGLVQAGGSLRLSCAASGSTFDAYAMGWYRQAPGKDRELVAGISSGGSYEYADSVKGRFTISRDNAKNTVYLQMNSLIPEDTAVYYCAADSRQSVYYYQPTKFDYWGQGSQVTVSS
- polyreactivity (PSR sort gate): low polyreactivity

Sequence: QVQLVESGGGLVQAGGSLRLSCAASGSTFDFYAMGWYRQAPGKERELVARISSGGGRTYYADSVKGRFTISRDNAKNTVYLQLNSLKPEDTAVYYCATDYPWIFGHFLMDYWGQGTQVTVSS
- polyreactivity (PSR sort gate): low polyreactivity

Sequence: QVQLVESGGGLVQAGGSLRLSCAASGSTFDGNAMGWYRQAPGKERELDAAISWNSGSTYYADSVKGRFTISRDNAKNTVYLQMNSLKPEDTAVYYCAATYGTGRRSKYGYWGQGTQVTVSS
- polyreactivity (PSR sort gate): high polyreactivity

Sequence: QVQLVESGGGLVQAGGSLRLSCAASGSTFDGYAMGWSRQAPGKERELVGSITRRGGSTYYADSVKGRFTISRDNAKNTVYVQMNSLKPEDTAVYYCAVLGRGVSGYTWPYDYWGQGTQVTVSS
- polyreactivity (PSR sort gate): high polyreactivity

Sequence: QVQLVESGGGLVQAGGSLRLSCAASGSTFDGYAMGWYRPAPGKERELVAGISTSGGSTYYADSVKGRFTISRDNAKNTVYLQMNSLKPEDSAVYYCAAEWFDQVKDPAADYISYEYWGQGTQVTVSS
- polyreactivity (PSR sort gate): low polyreactivity

Sequence: QVQLVESGGGLVQAGGSLRLSCAASGSTFDGYAMGWYRQAPAKERELVAAISRSGGRTYYADSVNGRFTISRDNAKITVYLQMNSLKPEDTAFYYCAAMYTYKREDYWGQGTQVTVSS
- polyreactivity (PSR sort gate): high polyreactivity

Sequence: QVQLVESGGGLVQAGGSLRLSCAASGSTFDGYAMGWYRQAPGKERELVAAITSSSTSTYYADSVKGRFTISRDNAKNTVYLQMNSLKPEDTAVYYCAAQYFSYISVYSFYTMGYWGQGTQVTVSS
- polyreactivity (PSR sort gate): low polyreactivity

Sequence: QVQLVESGGGLVQAGGSLRLSCAASGSTFDINAMGWYRQAPGKERELVAAINSDARTNYADSVKGRFTISRDNAKNTVYLLMNSLKPEDTAVYYCATDTSHSTYQYGYWGQGTQVSVSS
- polyreactivity (PSR sort gate): low polyreactivity

Sequence: QVQLVESGGGLVQAGGSLRLSCAASGSTFDINAMGWYRQAPGKERELVAAITSGGGTNYADSVKGRFTISRDNAKNTVYLQMNSMKPEDTAVYYCAARVRGKYDYWGQGTQVTVSS
- polyreactivity (PSR sort gate): high polyreactivity

Sequence: QVQLVESGGGLVQAGGSLRLSCAASGSTFDIYAMGWYRQAPGKERELVAAIRGRGGSTYYADSVKGRFTISRDNAKNTVSLQMNSLKPEDTAVYYCAAQTKRQRREFGFWGQGTQVTVSS
- polyreactivity (PSR sort gate): high polyreactivity

Sequence: QVQLVESGGGLVQAGGSLRLSCAASGSTFDIYAMGWYRQAPGKESELVAAISGSSTRTYYADSVKGRFTISRDNAKYTVYLQMNSLKPEDTPGYYCVGRFYERDYWGQGTQVTVSS
- polyreactivity (PSR sort gate): high polyreactivity

Sequence: QVQLVESGGGLVQAGGSLRLSCAASGSTFDIYVMGWYRQAPGKERELVAAISRVGNTSYADSVKGRFTISRDNAKNTVYLQMNSLKPEDTAVYYCAADAPSWYDRQYDYWGQGTQVTVSS
- polyreactivity (PSR sort gate): low polyreactivity

Sequence: QVQLVESGGGLVQAGGSLRLSCAASGSTFDLYAMGWYRQAPGKERELVAGISRGGSTYYADSVKGRFTISRDNAKNTVYLQMNSLKPEDTAVYYCAAYFRYRSSRYGYWGQGTQVTVSS
- polyreactivity (PSR sort gate): high polyreactivity
